Data reported in patent US20250304655A1 (CSL BEHRING, published 2025).

How the values were obtained:
Assay in all cases: BLI, LRP1 cluster III immobilised, analyte 2000-31.25 nM, kinetic fit 1:1
[1] = molecular target: T1, heme:Hx (plasma derived hemopexin complexed with heme) (UniProt P02790 24-462, limits assumed, heme bound, not covalent)
T1 construct: mature; Heme-loaded plasma-derived hemopexin, analyte in BLI; also called heme complexed plasma derived Hx; heme-hemopexin complex
T1 sequence (looked up): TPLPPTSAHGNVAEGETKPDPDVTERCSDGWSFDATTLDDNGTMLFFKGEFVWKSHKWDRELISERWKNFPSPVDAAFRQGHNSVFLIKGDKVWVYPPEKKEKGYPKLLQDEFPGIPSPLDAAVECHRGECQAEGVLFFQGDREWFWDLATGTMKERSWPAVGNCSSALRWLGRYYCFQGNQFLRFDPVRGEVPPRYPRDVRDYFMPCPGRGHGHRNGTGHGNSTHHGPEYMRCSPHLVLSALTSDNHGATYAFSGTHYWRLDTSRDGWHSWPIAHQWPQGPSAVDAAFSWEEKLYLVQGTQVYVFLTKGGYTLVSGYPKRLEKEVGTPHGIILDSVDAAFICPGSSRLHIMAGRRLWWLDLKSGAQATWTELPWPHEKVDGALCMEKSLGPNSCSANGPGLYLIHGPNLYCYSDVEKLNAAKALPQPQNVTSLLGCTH
Protocol: (§1) Streptavidin pre-coated biosensors (Cat No: 18-5019, FortéBio) were used. […] A reference control was included in every experiment (sensor loaded with ligand without analyte). Data was acquired on an OctetRED96 (FortéBio) at 30° C. with the following settings:
(§2) Since the full length receptor is challenging to express recombiantly, we immobilized only a fragment of CD91/LRP1 (cluster III).

heme:Hx-Hp complex = molecular target: T2, heme:Hx-Hp complex (human, UniProt P02790 24-462; P00738 162-406, heme bound, not covalent)
T2 construct: The Hx-Hp fusion protein loaded with heme
Protocol: as §1, §2

[2] = molecular target: T3, HuHemopexin-HuHaptoglobin2FS(148-406)-8His (human, UniProt P02790 24-462; P00738 162-406)
T3 construct: Cleaved by co-expressed C1r-LP; the two chains are held by the inter-chain disulphide; Uncomplexed form (no heme, no Hb)
Protocol: as §1, §2

T3 sequence (P00738 other isoform, or with tags, fused parts or gaps): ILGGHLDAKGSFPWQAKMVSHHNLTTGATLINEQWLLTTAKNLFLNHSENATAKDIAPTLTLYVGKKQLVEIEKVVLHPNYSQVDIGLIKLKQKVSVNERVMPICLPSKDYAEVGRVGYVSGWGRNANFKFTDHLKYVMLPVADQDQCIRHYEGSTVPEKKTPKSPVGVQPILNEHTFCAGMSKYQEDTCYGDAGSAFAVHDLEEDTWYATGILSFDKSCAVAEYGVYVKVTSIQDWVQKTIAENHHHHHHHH
T2 sequence (P00738 other isoform, or with tags, fused parts or gaps): as above

B1: biotinylated LRP1 Cluster III (receptor)
chain: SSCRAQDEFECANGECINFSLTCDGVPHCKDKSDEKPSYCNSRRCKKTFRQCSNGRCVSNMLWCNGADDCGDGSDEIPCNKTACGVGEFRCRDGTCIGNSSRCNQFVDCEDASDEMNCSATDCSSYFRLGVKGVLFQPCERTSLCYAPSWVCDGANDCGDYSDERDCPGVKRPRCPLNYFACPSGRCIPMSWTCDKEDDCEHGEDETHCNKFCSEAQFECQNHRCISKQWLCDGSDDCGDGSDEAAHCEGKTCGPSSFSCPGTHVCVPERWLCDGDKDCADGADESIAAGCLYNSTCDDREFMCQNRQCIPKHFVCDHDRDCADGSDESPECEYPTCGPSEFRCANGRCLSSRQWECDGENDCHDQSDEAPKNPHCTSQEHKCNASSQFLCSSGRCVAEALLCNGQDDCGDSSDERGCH
modifications: biotinylated
notes: Detected with an anti-His antibody, so it appears to carry a His tag; also called LRP1/CD91 domain 3; CD91/LRP1 (cluster III)
[1]
  Kd: 392 nM
  koff: 0.068 s⁻¹
  kon: 170000 M⁻¹ s⁻¹
heme:Hx-Hp complex
  Kd: 480 nM
  koff: 0.044 s⁻¹
  kon: 91000 M⁻¹ s⁻¹
[2]
  Kd: 2700 nM
  koff: 0.039 s⁻¹
  kon: 15000 M⁻¹ s⁻¹
